± gives the uncertainty stated by the source.

The data set can be described thus: amyloid nucleation score (Sup35N fusion, yeast selection) (log enrichment); library NNK1; higher = more nucleation; inactive = no reads after selection. An outline of the steps:
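Growth for 7 days at 30°C on medium lacking adenine and uracil followed a 24-hour induction with 100 μM copper sulfate of psi-negative yeast expressing peptides of 20 random codons fused to Sup35N. Input and output plasmid inserts were sequenced with Illumina, and sequences with under 100 input reads were excluded. Nucleation score is the DiMSum log enrichment of output over input reads, centred on the mode score of non-aggregating sequences.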
In turn, NTIRFAHLLV showed an amyloid nucleation score of -0.318 ± 0.35. The substance SERVMEWGTLKLYDSVHCVL yielded an amyloid nucleation score of -1.55 ± 2.7. For VEVSWAAQST, the amyloid nucleation score is 0.506 ± 0.91. Then GYGAKWVLVVS, with 1.25 ± 0.47. Then KNNVDSKHS, with 0.021 ± 0.52.

Substance RKCWGSKEGVKKT displayed an amyloid nucleation score of -0.62 ± 0.39. Take GMCPLNRNGGFGNGVVEGVV: the amyloid nucleation score was 0.166 ± 1.6. Take DIILLYSLFADIFISGRIYT: the amyloid nucleation score was -0.13 ± 0.58. The substance MLHYAWVGLSVNDMVLPEMC yielded an amyloid nucleation score of -0.78 ± 0.67.

Substance FGSLRHCFTFNCNPGMGVWV yielded an amyloid nucleation score of 2.53 ± 0.16. With GGSDFWIGN, the amyloid nucleation score came to 0.277 ± 0.48. The substance CRCSSQLRYMHGRFWFDRSV returned an amyloid nucleation score of 0.084 ± 0.62. The substance NVCLLGRLRFYVVLTGIRDL gave an amyloid nucleation score of -0.34 ± 0.74. SNSFALALLPGGT: the amyloid nucleation score was found to be 0.275 ± 0.75. In the case of YCTTAIGSKSLVDIWHAGCS, the amyloid nucleation score is -0.412 ± 1.2. On to YCNGSLLRLAYMFGSGVSPR, for which the amyloid nucleation score came out at 0.935 ± 0.46.

Consider LCNFDSGFGNYGLL, for which the amyloid nucleation score is -0.17 ± 0.52. Then MFFSSIYVAYYGLLLIYSYM, with “inactive”; and IFYLRFPVLLVISPRCALYI, with 0.623 ± 0.75. In the case of AWKGRLAYKWIGNMMAGLVW, the amyloid nucleation score stood at 0.005 ± 0.32. Then IPKVRTRVLGIISTTSLLGG, with 0.037 ± 0.97; and RSASAREHNTALRSRPARVG, with -0.353 ± 1.7; and NIISEN, with “inactive”. MVNWEARQ displayed an amyloid nucleation score of 0.862 ± 0.64.

As to TLCINWKPFP, the amyloid nucleation score came to 0.308 ± 0.38. Substance YRGWVVQGIHLKFSCFAELR gave an amyloid nucleation score of 0.333 ± 0.97. Take YTYMHRNDEFALM: the amyloid nucleation score result is “inactive”. Regarding DMTNAVCTRLNFIRLSTLMK, the amyloid nucleation score is 0.041 ± 0.32. The same measure for GDSVESQILLVVGCIY: -0.416 ± 1.2; for LWKGATRCHKVLRMLENDND: -0.606 ± 0.9; for VFFGVVQLICDGVKEIFPNL: 4 ± 0.1. Substance IYSNEELIMRVVNQY yielded an amyloid nucleation score of 0.856 ± 0.58.

PCSQPFT: the amyloid nucleation score was -0.154 ± 0.45. In the case of RSFTCVMDRSDVEVGQCLGS, the amyloid nucleation score was -0.6 ± 0.77. In turn, SVTDRKV came in with an amyloid nucleation score of 0.468 ± 0.41.

The substance PNIFCLQRSPNRP yielded an amyloid nucleation score of -0.331 ± 0.31. Turning to CVLFAYFNALF, the amyloid nucleation score worked out at 1.3 ± 0.57. Regarding YRLRYI, the amyloid nucleation score result is “inactive”. The same measure for LTGSRIMCFSMWR: -1.02 ± 0.43; for WFTAFARK: 3.41 ± 0.11; for IKMYACMYWLVEFLVN: -0.046 ± 0.86. As for CDQASL, the amyloid nucleation score result was “inactive”.

On to LAWTMSQQIGETRRGAEMCT, for which the amyloid nucleation score worked out at 0.106 ± 0.33. Substance DIYIMSNGLGYYFFSTNVRM yielded an amyloid nucleation score of 2.55 ± 0.19. In the case of TWIKILSGPLYKFCI, the amyloid nucleation score is -0.2 ± 0.56.

CTFILVLHLLHINTDHIMSA came in with an amyloid nucleation score of -0.176 ± 1.1.

On to TCRDYCASVSEEQIWLMVYR, for which the amyloid nucleation score was determined as 0.297 ± 0.67. As to GQAWCTLTCRGTGPSQLGWV, the amyloid nucleation score was -0.508 ± 0.57. Take SFLSSGINRSRCY: the amyloid nucleation score stood at 0.154 ± 0.32. With FNLISGKIGYRLLQTCIMMM, the amyloid nucleation score was -0.963 ± 0.51. In turn, YWLLT showed an amyloid nucleation score of -0.501 ± 0.55. VLLGELIL: the amyloid nucleation score was 0.434 ± 0.56.

Substance SSMILSNGVFNCQMGFLACK showed an amyloid nucleation score of 0.461 ± 0.43. Take LCSIKNSLMECLWYDL: the amyloid nucleation score was -0.177 ± 0.33. On to YAFWFLCGYALP, for which the amyloid nucleation score was determined as 2.92 ± 0.12. For the substance YMVSCYLAGNQDSVVCSVKW, the amyloid nucleation score stood at 2.23 ± 0.18. As for IWMWEWQHCSEARKNMMWVS, the amyloid nucleation score came to 2.1 ± 0.13. Turning to LTFMFTTRIA, the amyloid nucleation score is -0.912 ± 1.1.

Substance VSRNFVTKDSQLNGLSN came in with an amyloid nucleation score of -1.52 ± 1.4. The same measure for VWLPYIFIDTSY: “inactive”; for NSRGVSSKYCFGKRIPDGGL: 0.117 ± 0.3; for DSKPVIILR: -0.516 ± 0.27. Substance ISAKH came in with an amyloid nucleation score of -0.89 ± 0.65. Substance EGLLFYEYSSMCVEKDWIKN returned an amyloid nucleation score of -0.136 ± 0.43. Turning to TRWIRYTFRFS, the amyloid nucleation score was determined as 1.61 ± 0.13. For the substance AMKLVPLNLYFKDNKNQSSC, the amyloid nucleation score is -0.033 ± 0.31. The substance SKSSRTFLVFSLVWVYNLLM yielded an amyloid nucleation score of 1.73 ± 0.19. Substance DWHGLTKVMITW returned an amyloid nucleation score of 3.31 ± 0.11. The same measure for WDKWI: 0.418 ± 0.49; for RRNVM: 0.519 ± 0.25; for VYHIYDG: -0.662 ± 0.43. As for ISFDSLWDCSYS, the amyloid nucleation score is -0.232 ± 0.23.

Substance FHPAMVVICILWHKR registered an amyloid nucleation score of 1.62 ± 0.37.

In turn, CCVRACFPWNVLCKEMIFTR registered an amyloid nucleation score of -0.663 ± 1.6. CAIWFRTEWFWTVCTWVSGH had an amyloid nucleation score of -0.201 ± 0.43.

Take NSLCSP: the amyloid nucleation score was -1.31 ± 1.9. IDHSTRVNPGEPLQVLRGGL came in with an amyloid nucleation score of 4.29 ± 0.088. PYRYKSGWATTQSLRREQLD yielded an amyloid nucleation score of -0.743 ± 1.3.

In turn, PLRNGWFLRKLRS returned an amyloid nucleation score of -1.35 ± 1.3. The substance TGLLLLIRNICYCLNLQLWG came in with an amyloid nucleation score of 0.271 ± 0.53. For the substance DCYHLGQTIPISRFGLRTKL, the amyloid nucleation score was 0.826 ± 0.75. Consider ESVIFFSCTYSSMMVSWTSR, for which the amyloid nucleation score came to 0.382 ± 1.4. For ATMSRGFKQ, the amyloid nucleation score is 0.834 ± 0.36.

For the substance VIHRIIDVLF, the amyloid nucleation score was -0.06 ± 0.57. Then TFGSVGYI, with 0.116 ± 0.45; and MRSFAFWNYVFGRGMFPVFW, with -0.272 ± 0.41; and YHSKLFVGGYWLYREDGREY, with 0.812 ± 0.24. Turning to RVVLGTGDLVSCRFIFSLEK, the amyloid nucleation score is -1.25 ± 0.44.

Substance TFQLKMWEHVVLPDVSMAST came in with an amyloid nucleation score of 0.669 ± 0.48. The same measure for WMYDSLDTSMTLANSHLQTL: -0.098 ± 0.51. On to THVIRVGNQRSLRVFSRGVS, for which the amyloid nucleation score turned out to be 1.32 ± 0.41.

LISPVQSNTSAMVCELSDPY returned an amyloid nucleation score of 0.56 ± 0.76. For RRWYTSHLLWGRNISAGDIL, the amyloid nucleation score was -0.221 ± 0.44. Then KFSGWHLHGDLCRIHALEVW, with 0.457 ± 0.27; and CLFNSGFSDIGLRGMWGRKF, with 0.358 ± 0.35; and FLNYVMDVLGGRIRDVWWFT, with 0.829 ± 0.66. Then RFSWMQLWCECVLHY, with -0.162 ± 0.3. The substance LRSVPRSRSF showed an amyloid nucleation score of 0.783 ± 0.41. With FGASIGDGDFRVM, the amyloid nucleation score was found to be 0.069 ± 0.53. For the substance KLTCRDSRFVRAIFVMSKSA, the amyloid nucleation score is -0.458 ± 0.3. The substance TVNVY gave an amyloid nucleation score of 0.829 ± 0.62.

Substance RLTECSYCCNSDYITHMELL showed an amyloid nucleation score of -0.317 ± 0.29. As for SILMIMMTLSSVQRLMLTGS, the amyloid nucleation score was -0.161 ± 0.71. On to QDYGDDLRSGFRGYLSSPQG, for which the amyloid nucleation score was determined as 0.264 ± 0.32. Then VQGYTYGGCDGFMEWLGKLI, with -0.295 ± 0.61. Substance TLYPHTGEGGKRLDLGCLSR displayed an amyloid nucleation score of 1.39 ± 0.48.

(Values after the supplement of paper PMC12042874.)
